What was measured:
[1] = biological target: T1, recombinant human TROP2 extracellular domain (aa 1-274) comprising His tag (human, UniProt P09758 27-274); experiment: SPR
T1 construct: Used here for all assays on recombinant human TROP2 (ELISA, immunoblot, SPR, crystal), although only some of them name the catalogue number; also called human recombinant TROP2; recombinant human TROP2 protein; not shown: His tag
T1 sequence: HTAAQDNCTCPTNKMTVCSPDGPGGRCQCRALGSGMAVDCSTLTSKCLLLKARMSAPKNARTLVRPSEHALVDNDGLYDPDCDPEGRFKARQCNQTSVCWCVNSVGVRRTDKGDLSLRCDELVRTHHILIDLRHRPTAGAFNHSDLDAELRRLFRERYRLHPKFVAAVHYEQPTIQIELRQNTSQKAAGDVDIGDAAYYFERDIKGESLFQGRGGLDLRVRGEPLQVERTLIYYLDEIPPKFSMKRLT

[2] = biological target: T2, HEK-TROP2 Δ27-146 (human, UniProt P09758); experiment: flow cytometry, 100 nM antibody, transiently transfected HEK cells, APC anti-human Fc
T2 construct: deletion of residues 27-146, transiently expressed on HEK cells
T2 sequence (membrane protein on transfected HEK cells, looked up): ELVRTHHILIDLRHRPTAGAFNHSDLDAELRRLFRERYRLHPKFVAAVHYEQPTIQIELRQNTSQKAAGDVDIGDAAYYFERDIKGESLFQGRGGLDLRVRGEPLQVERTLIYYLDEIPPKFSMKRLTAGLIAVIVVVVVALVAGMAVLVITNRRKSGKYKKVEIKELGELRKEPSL
Method in brief: (§1)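 HEK parental cells transiently transfected (lipofectamine) with human TROP2 truncation mutants, harvested 24 h later and Fc-blocked 10 min at RT. Anti-TROP2 sdAbs at 100 nM bound 30 min on ice, then detected with APC anti-human Fc (30 min) and 7-AAD added for viability.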

[3] = biological target: T3, HEK-TROP2 Δ27-66 (human, UniProt P09758); experiment: as above
T3 construct: deletion of residues 27-66, transiently expressed on HEK cells
T3 sequence (membrane protein on transfected HEK cells, looked up): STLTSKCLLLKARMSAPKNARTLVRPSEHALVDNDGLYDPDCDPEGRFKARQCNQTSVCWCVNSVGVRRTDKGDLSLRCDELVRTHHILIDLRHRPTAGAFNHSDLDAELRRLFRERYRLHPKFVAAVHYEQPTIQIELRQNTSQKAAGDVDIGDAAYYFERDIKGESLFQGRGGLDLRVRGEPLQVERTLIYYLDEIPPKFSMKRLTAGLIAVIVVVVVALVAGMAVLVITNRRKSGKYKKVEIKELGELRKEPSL
Method in brief: as §1

[4] = biological target: T4, BSA (bovine, UniProt P02769); experiment: ELISA on coated recombinant protein, 200 nM antibody, RLU
T4 construct: also called bovine serum albumin
T4 sequence (P02769 25-607 limits assumed): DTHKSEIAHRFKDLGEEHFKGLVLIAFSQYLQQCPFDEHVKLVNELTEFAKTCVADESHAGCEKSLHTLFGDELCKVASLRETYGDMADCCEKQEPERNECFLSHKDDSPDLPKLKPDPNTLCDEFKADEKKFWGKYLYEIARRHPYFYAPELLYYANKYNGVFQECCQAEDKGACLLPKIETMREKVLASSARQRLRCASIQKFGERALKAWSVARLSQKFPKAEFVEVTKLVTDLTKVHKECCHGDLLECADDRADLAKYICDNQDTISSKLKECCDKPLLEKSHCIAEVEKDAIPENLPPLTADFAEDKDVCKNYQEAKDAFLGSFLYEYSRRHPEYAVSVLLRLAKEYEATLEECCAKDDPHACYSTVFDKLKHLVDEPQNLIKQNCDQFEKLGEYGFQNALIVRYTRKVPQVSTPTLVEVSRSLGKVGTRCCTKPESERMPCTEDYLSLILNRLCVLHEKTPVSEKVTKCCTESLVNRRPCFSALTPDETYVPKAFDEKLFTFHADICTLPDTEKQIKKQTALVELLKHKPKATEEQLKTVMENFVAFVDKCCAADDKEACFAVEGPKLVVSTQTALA

[5] = biological target: T5, recombinant human IGFBP-1 (human, UniProt P08833 26-259); experiment: as above
T5 construct: also called rhIGFB-1
T5 sequence (looked up): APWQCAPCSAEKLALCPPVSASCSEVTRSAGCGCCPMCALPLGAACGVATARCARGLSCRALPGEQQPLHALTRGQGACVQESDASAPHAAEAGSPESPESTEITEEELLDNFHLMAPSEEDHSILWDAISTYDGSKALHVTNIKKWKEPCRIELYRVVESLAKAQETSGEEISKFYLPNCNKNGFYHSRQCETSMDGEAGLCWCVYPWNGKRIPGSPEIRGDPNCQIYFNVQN

[6] = biological target: T6, recombinant human EpCAM (human, UniProt P16422 24-265); experiment: as above
T6 construct: also called rhEpCAM
T6 sequence (looked up): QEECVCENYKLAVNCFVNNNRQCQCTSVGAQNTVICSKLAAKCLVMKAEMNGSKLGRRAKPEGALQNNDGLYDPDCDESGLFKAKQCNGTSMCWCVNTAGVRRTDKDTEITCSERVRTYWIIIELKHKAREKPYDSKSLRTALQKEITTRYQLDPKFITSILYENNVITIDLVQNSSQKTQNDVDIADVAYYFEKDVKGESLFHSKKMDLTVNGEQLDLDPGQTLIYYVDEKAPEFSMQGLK

[7] = biological target: T1, recombinant human TROP2 extracellular …; experiment: competitive ELISA on coated recombinant human TROP2, competitor KD002-His (14285.7 pM per text), anti-His-HRP
Procedure: The epitope characterization was assessed by competitive ELISA (FIG. 8 and FIG. 9). Microplates were coated with human recombinant TROP2 at 4° C. overnight. After washing, plates were blocked with blocking buffer (PBS+2% BSA), for 1 hour at room temperature. Meanwhile, the dilution for anti-TROP2 VHH sdAbs was prepared with blocking buffer making two different dilutions depending on the tag. For sdAbs with His tag, the antibody was diluted to 28571.4 pM. For sdAbs without tag, antibodies were serially diluted from 2857142.9 pM to 0.29 pM (8 dilutions, 10×). After that, equal volume of the his-tagged sdAbs and serial diluted non-tagged sdAbs were mixed, to make the final concentration of his-tagged sdAbs 14285.7 pM and non-tagged sdAbs from 1428571.4 pM to 0.14 pM. After washing two times, the mixed antibody contents were added into the wells and the plates were incubated for 2 hours at room temperature. The HRP-conjugated anti-6× His was diluted to 1:5000 and added to the wells after washing three times. Any unbound conjugate was removed by washing after 1 hour incubation at room temperature, and the colorimetric reaction was performed by adding the same volume of Supersignal ELISA Pico Luminol/Enhancer and SuperSignal ELISA Pico Stable Peroxide Solution and detected on SpectraMax i3x Microplate Reader. Positive and negative controls were included in each plate.

B1: KD001 (antibody, human IgG1, V domains shown)
VH: QVQLQESGGGMVHPGGSLRLSCAASGFTFSGSDMSWVRQAPGKGPEWVSYITSGGTTYYPDSVKGRFTISRDNAKNTLYLQMNSLTPDDTALYRCAKARLTDSHYVEDAWGQGTQVTVSS
notes: also called anti-TROP2 sdAb KD001
In the case of B1, the Kd [1] is reported as 0.0826 nM, the koff [1] is reported as 7.54e-05 s⁻¹ and the kon [1] is reported as 913000 M⁻¹ s⁻¹. B1: no binding (tested: 100 nM) [2]; no binding (tested: 100 nM) [3]; no binding (tested: 200 nM) [4]. For the same binder, the binding result [5] was “no binding (tested: 200 nM)”, the binding result [6] was “no binding (tested: 200 nM)” and the “IC50 (read off the curve)” value [7] was roughly 40 nM.

B2: KD004 (antibody, human IgG1, V domains shown)
VH: QVQLQESGGGLVQPGRSLRLSCAASGFTFSGSDMSWVRQAPGKGPEWVSYITGSGTTYYPDSVKGRFTTSRDNAKNMLYLQMNSLKPDDTALYRCAKARLTDSHYVEDAWGQGTQVTVSS
notes: also called anti-TROP2 sdAb KD004
B2 was tested, and the Kd [1] was 0.0294 nM, the koff [1] was 4.42e-05 s⁻¹ and the kon [1] was 1.51e+06 M⁻¹ s⁻¹. B2: no binding (tested: 100 nM) [2]; no binding (tested: 100 nM) [3]; no binding (tested: 200 nM) [4]. The binding result [5] was “no binding (tested: 200 nM)”, the binding result [6] was “no binding (tested: 200 nM)” and the “IC50 (read off the curve)” value [7] was roughly 40 nM.

B3: KD005 (antibody, human IgG1, V domains shown)
VH: QVQLQESGGGLVEAGGSLRLSCAASGFTFSGSDMSWVRQAPGKGPEWVSYITSGGTTYYPDSVKGRFTISRDNAKNTLYLQMNSLKPDDTALYRCAKSRLTDSHYVEDAWGQGTQVTVSS
notes: also called anti-TROP2 sdAb KD005
In the case of B3, the Kd [1] is reported as 0.0268 nM, the koff [1] is reported as 4.27e-05 s⁻¹ and the kon [1] is reported as 1.59e+06 M⁻¹ s⁻¹. B3: no binding (tested: 100 nM) [2]; no binding (tested: 100 nM) [3]; no binding (tested: 200 nM) [4]. The binding result [5] was “no binding (tested: 200 nM)”, the binding result [6] was “no binding (tested: 200 nM)” and the “IC50 (read off the curve)” value [7] was roughly 40 nM.

B4: KD002 (antibody, human IgG1, V domains shown)
VH: QVQLQESGGGMVQVGGSLRLSCAASGFPFSSADMSWVRQAPGKGPEWVSYINADGSKTYYPDSVKGRFTISRDNAKNTLYLLMNNLKPEDTALYRCARAKLTDTHYVEDYWGQGTQVTVSS
notes: also called anti-TROP2 sdAb KD002
Work on B4 yielded a Kd [1] of 0.0432 nM, a koff [1] of 5.69e-05 s⁻¹ and a kon [1] of 1.32e+06 M⁻¹ s⁻¹. B4: no binding (tested: 100 nM) [2]; no binding (tested: 100 nM) [3]; no binding (tested: 200 nM) [4]. For the same binder, the binding result [5] was “no binding (tested: 200 nM)”, the binding result [6] was “no binding (tested: 200 nM)” and the “IC50 (read off the curve)” value [7] was roughly 60 nM.

B5: KD003 (antibody, human IgG1, V domains shown)
VH: QVQLQESGGGMVQPGGSLRLSCAASGFTFSNYDMSWVRQAPGKGPEWVSYINAGGSNTDYPDSVKGRFTISRDNAKNMLYLLMNNLKPEDTALYRCARAKLTDTHYVEDYWGQGTQVTVSS
notes: also called anti-TROP2 sdAb KD003
B5 was tested, and the Kd [1] was 0.0459 nM, the koff [1] was 4.88e-05 s⁻¹ and the kon [1] was 1.06e+06 M⁻¹ s⁻¹. B5: no binding (tested: 100 nM) [2]; no binding (tested: 100 nM) [3]; no binding (tested: 200 nM) [4]. The binding result [5] was “no binding (tested: 200 nM)”, the binding result [6] was “no binding (tested: 200 nM)” and the “IC50 (read off the curve)” value [7] was roughly 40 nM.

From patent publication US20240360242A1 (KISOJI BIOTECHNOLOGY, published 2024)
